Series [1] has as its target T1, AnaCTDH (CTDH, C-terminal domain homolog of OCP, clade 2) (Nostoc sp. PCC 7120 = FACHB-418, UniProt A0ACD6B996, C103F/DEL126-136).
T1 construct: gene all4940; C-terminal His-tag (plasmid pCDF-CTDHAna-C103F), expressed in E. coli; dimer about 34 kDa; the wild type was crystallised in apo form
The series can be described thus: absorbance spectra after uptake from canthaxanthin-containing E. coli membranes. The conditions noted are these: 12 µM apo-dimer, membranes with 48 µM canthaxanthin, 33 °C, 1 h, darkness; C-terminal tail deleted. Format: binding.

The target of series [2] is T2, AnaCTDH (CTDH, C-terminal domain homolog of OCP, clade 2) (Nostoc sp. PCC 7120 = FACHB-418, UniProt A0ACD6B996, C103F).
T2 construct: gene all4940; C-terminal His-tag (plasmid pCDF-CTDHAna-C103F), expressed in E. coli; dimer about 34 kDa; the wild type was crystallised in apo form
T2 sequence (A0ACD6B996 entry or part of it C103F): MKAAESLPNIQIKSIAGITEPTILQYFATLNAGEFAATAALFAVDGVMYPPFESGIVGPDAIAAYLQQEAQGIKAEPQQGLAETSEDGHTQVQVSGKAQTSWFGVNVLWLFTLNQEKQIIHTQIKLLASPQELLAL
The description is as above. The following applies: 12 µM apo-dimer, membranes with 48 µM canthaxanthin, 33 °C, 1 h, darkness. It counts as binding.

Series [3] has as its target Anabaena (Nostoc) PCC 7120 apo-CTDH (carotenoid-free C-terminal domain homolog of Orange Carotenoid Protein) (Anabaena (Nostoc) PCC 7120). As to the kind of experiment: SEC; apo-AnaCTDH treated with 2 M urea overnight, preparative column, 40 mM Tris-HCl pH 8 with 2 M urea.
For series [4] the target is unchanged. The series can be described thus: native gel or EMSA; purified apo-AnaCTDH on 15% native polyacrylamide gel, pH 8 (25 mM Tris-HCl, 192 mM glycine), non-reducing.
Series [5] concerns the molecule itself. The series can be described thus: SAXS; batch mode, 270 µM per monomer, 20 mM Tris-HCl pH 7.6, 150 mM NaCl, 0.1 mM EDTA, 2 mM dithiothreitol, 3% glycerol.

T1 sequence (A0ACD6B996 entry or part of it C103F/DEL126-136): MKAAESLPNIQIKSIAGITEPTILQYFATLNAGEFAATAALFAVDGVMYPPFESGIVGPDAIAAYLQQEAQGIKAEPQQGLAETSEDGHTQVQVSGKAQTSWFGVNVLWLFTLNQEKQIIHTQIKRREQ

On to `CC1=C(/C=C/C(C)=C/C=C/C(C)=C/C=C/C=C(C)/C=C/C=C(C)/C=C/C2=C(C)C(=O)CCC2(C)C)C(C)(C)CCC1=O` [canthaxanthin], for which the “% holo-protein formed” value in series [1] is 20(±5) %; in series [2], 100%. “Anabaena (Nostoc) PCC 7120 apo-CTDH (carotenoid-free C-terminal domain homolog of Orange Carotenoid Protein) (natural protein)”: the stoichiometry N in series [3] and in series [4] was 2 each time.

B1: Apo-CTD from Synechocystis OCP (residues 165-317) (domain or fragment, Synechocystis 6803, UniProt P74102 165-317, looked up)
chain: AGKDGKRIAEPVVPPQDTASRTKVSIEGVTNATVLNYMDNLNANDFDTLIELFTSDGALQPPFQRPIVGKENVLRFFREECQNLKLIPERGVTEPAEDGFTQIKVTGKVQTPWFGGNVGMNIAWRFLLNPEGKIFFVAIDLLASPKELLNFAR
notes: C-terminal domain of the Orange Carotenoid Protein of Synechocystis 6803, residues 165-317 (of 317); 18.7 kDa construct with an uncleavable N-terminal hexahistidine tag; carotenoid-free; The SAXS modelling counts 23 flexible N-terminal residues (tag and linker included) and 12 C-terminal ones; also called apo-OCP-CTD; CTD-OCP; not shown: His6, N-terminal, kept
For B1, the “stoichiometry N” value in series [5] turned out to be 2.

Source of the values: paper PMC6123778, “Structural rearrangements in the C-terminal domain homolog of Orange Carotenoid Protein are crucial for carotenoid transfer” (Communications Biology, 2018).
